From PMC2746992

Assays:
Assay in all cases: spectrophotometric, decrease in A260
Settings in all cases: 50 mM Tris-HCl, pH 7.5, 0.1 mM MnCl2, 25 °C
[1] = substrate: O=C(O)/C=C\C=C/C(=O)O; format: biochemical, Pseudomonas putida
[2] = substrate: O=C(O)/C=C\C=C/C(=O)O; format: biochemical, Pseudomonas protegens
[3] = substrate: O=C(O)/C=C\C=C/C(=O)O; format: biochemical, Mycolicibacterium smegmatis

B1: MLE-1 from Pseudomonas putida (Pseudomonas putida) (protein)
chain: TSVLIERIEAIIVHDLPTIRPPHKLAMHTMQTQTLVLIRVRCSDGVEGIGEATTIGGLAYGYESPEGIKANIDAHLAPALVGLPADNINAAMLKLDKLAKGNTFAKSGIESALLDAQGKRLGLPVSELLGGRVRDSLEVAWTLASGDTARDIAEAQHMLEIRRHRVFKLKIGANPLAQDLKHVVAIKRELGDSASVRVDVNQYWDESQAIRACQVLGDNGIDLIEQPISRINRSGQVRLNQRSPAPIMADESIESVEDAFSLAADGAASIFALKIAKNGGPRAVLRTAQIAEAAGIALYGGTMLEGSIGTLASAHAFLTLRQLTWGTELFGPLLLTEEIVNEPPQYRDFQLHIPRTPGLGLTLDEQRLARFARR
B1 was tested, and the Km [1] was “(5.4 ± 0.5) × 10^-4 M”, the kcat [1] was 11 ± 0.5 s⁻¹ and the kcat/Km [1] was 20000 M⁻¹ s⁻¹.

B2: MLE-1 from Pseudomonas fluorescens (MLE-PF, syn-MLE) (Pseudomonas protegens Pf-5) (protein)
chain: MHASAIESIETIIVDLPTIRPHKLAMHTMQNQTLVLIRLRCADGIEGLGESTTIGGLAYGNESPDSIKTNIDRFVAPLLIGQDASNINAAMLRLEQSIRGNTFAKSGIESALLDAQGKRLGLPVSELLGGRVRDALPVAWTLASGDTAKDIAEAQKMLDLRRHRIFKLKIGAGEVDRDLAHVIAIKKALGDSASVRVDVNQAWDEAVALRACRILGGNGIDLIEQPISRNNRAGMVRLNASSPAPIMADESIECVEDAFNLAREGAASVFALKIAKNGGPRATLRTAAIAEAAGIGLYGGTMLEGGIGTLASAHAFLTLNKLSWDTELFGPLLLTEDILAEPPVYRDFHLHVSKAPGLGLSLDEERLAFFRRD
B2 was tested, and the Km [2] was “(1.6 ± 0.2) × 10^-5 M”, the kcat [2] was 110 ± 2 s⁻¹ and the kcat/Km [2] was 7e+06 M⁻¹ s⁻¹.

B3: MLE-2 from Mycobacterium smegmatis (MLE-MS, anti-MLE) (Mycolicibacterium smegmatis MC2 155) (protein)
chain: MKIVAIGAIPFSIPYTKPLRFASGEVHAAEHVLVRVHTDDGIVGVAEAPPRPFTYGETQTGIVAVIEQYFAPALIGLTLTEREVAHTRMARTVGNPTAKAAIDMAMWDALGQSLRLSVSEMLGGYTDRMRVSHMLGFDDPVKMVAEAERIRETYGINTFKVKVGRRPVQLDTAVVRALRERFGDAIELYVDGNRGWSAAESLRAMREMADLDLLFAEELCPADDVLSRRRLVGQLDMPFIADESVPTPADVTREVLGGSATAISIKTARTGFTGSTRVHHLAEGLGLDMVMGNQIDGQIGTACTVSFGTAFERTSRHAGELSNFLDMSDDLLTVPLQISDGQLHRRPGPGLGIEIDPDKLAHYRTDN
In the case of B3, the Km [3] is reported as “(5.6 ± 1) × 10^-4 M”, the kcat [3] is reported as 78 ± 6 s⁻¹ and the kcat/Km [3] is reported as 140000 M⁻¹ s⁻¹.
